These results are taken from patent US20030235558A1.

The target of the assay is ^125I-labeled multiubiquitin chains. The assay is described as follows: GST fusion on glutathione agarose beads, ^125I-labeled multiubiquitin chains, gamma-counting.

In the case of “GST fused p62 ubiquitin binding region (GST.p62C259) (from UniProt O08623 363-439)”, the Multiubiquitin Chain Bound (%) was 100% and the Multiubiquitin Chain Bound cpm turned out to be 5210 cpm.

On to “GST fused p62 ubiquitin binding region mutant L394/L395 → A/A (from UniProt O08623 363-439)”, for which the Multiubiquitin Chain Bound (%) stood at 17% and the Multiubiquitin Chain Bound cpm is 877 cpm.
